Laboratory results: patent US20090117043A1 (Human Genome Sciences, published 2009)
Where no end group is shown, it is not given here.

B1: NO15F10 (scFv)
scFv: QVQLQQSGAEVKKPGSSVKVSCKASGGTFSSYAISWVRQAPGQGLEWMGGSIPKFRTANYAKKFQGRVTITADESTSTAYMELSSLRSDDTAVYYCARGSAYNLRNAFDIWGQGTTVTVSSGGGGSGGGGSGGGGSAQSVVTQPPSVSAAPGQRVTISCSGSSSNIANNYVSWYQQLPGTAPKLLIYDNNKRPSGIPDRFSGSKSGTSATLGITGLQTGDEADYYCGTWDSSLSAYVFGTGTKVTVLG
B2: NO24B07 (scFv)
scFv: QVQLQQSGAEVKKPGSSVKVSCKASGGTFSSYAISWVRQAPGQGLEWMGGSIPKFRTANYAKKFQGRVTITADESTSTAYMELSSLRSDDTAVYYCARGSTYNLRNAFDIWGKGTLVTVSSGGGGSGGGGSGGGGSAQSVVTQPPSASGTPGQRVTISCSGGSSNIGRNTVNWYQQVPGTAPKLLIYTNNQRPSGVPDRFSGSKSGTSASLAISGLQSEDEADYYCAAWDDSLNDVEFGGGTKLTVLG
B3: NO23F05 (scFv)
scFv: QVQLVQSGAEVKKPGFSVKVSCKASGGSFSNYVISWLRQAPGQGLEWMGGIMPIFGNANYAQKFQDRVTITADKSTSTAYMELSSLRSDDTAVYYCARDQIVVDPVTKGAYYSGLDVWGRGTMVTVSSGGGGSGGGGSGGGGSAQSVLTQPPSASGTPGQRVTISCSGGSSNIGANAITWFQQLPGTAPKLLIYHNNQRPSGVPDRFSGSKSGTSGSLAISGLQSEDEADYYCAVWDNSLNAMLFGGGTKLTVLG
B4: NO24F07 (scFv)
scFv: QVQLQQSGAEVKKPGSSVNVSCKASGGTFDTFGISWVRQAPGKGLEWMGVIAHDGSISYYADSVKGRFTFSRDNSKNTVSLQMNSPRPEDTAVYYCAKGEYDSSGYNAFDIWGKGTLVTVSSGGGGSGGGGSGGGGSQSVLTQPPSVSAAPGQKVTVSCSGSTSNIGNNYVSWYQQHPGKAPKLMIYDVSKRPSGVPDRFSGSKSGNSASLDISGLQSEDEADYYCAAWDDSLSEFLFGTGTKLTVLG
B5: NO24B01 (scFv)
scFv: QVQLQQSGNEVKKPGSSVKISCKASGAPFNSYVISWVRQAPGQGLEWVGGVVPIFGTAHYAHQFQGRVTIIADKSTSTVYMELRGLTSDDTAEYFCARQGPYGKLDDWGQGTMVTVSSGGGGSGGGGSGGGGSALSYELTQPPSASGTPGQRVTISCSGSSSNIGSNYVYWYQQFPGTAPKLLMYRNNQRPSGVPDRFSGSKFGTSASLAISGLRSEDEADYYCAAWDDSLTGRVFGGGTKVTVLG
B6: NO25E05 (scFv)
scFv: QVQLQQSGAEVKKPGSSVKVSCKASGDTFSSNTISWVRQAPGQGLEWMGGIIPIIGTPHYAQKFQGRVTITADRSTSTAYMELTNLRSEDTAVYFCARNRVGTSSFDFWGQGTMVTVSSGGGGSGGGGSGGGGSALPVLTQPPSASGTPGQRVTISCSGSSSNIGSNTVNWYQQLPGTAPKLFIYSNNQRPSGVPDRFSGSKSGTSASLAISGLQSEDEADYYCSSWDDSLNLIFGGGTKVTVLG
B7: NO15D10 (scFv)
scFv: QVQLVQSGAEVKKPGSSVRISCKASGGSFRTYVVSWVRQAPGQGLEWMGGIIPVYGTPNYAQKFQGRVTITADEPTRTTYMELSSLRSEDTGVYYCARNGGGLDYWGQGTMVTVSSGGGGSGGGGSGGGGSQSVLTQPPSVSAAPGQKVTISCSGSTSNIGNNYVSWYQQHPGKAPKLMIYDVSKRPSGVPDRFSGSKSGNSASLDISGLQSEDEADYYCAAWDDSLSEFLFGTGTKLTVLG
B8: NO24D08 (scFv)
scFv: EVQLVQSGAEVKRPGASVKISCRTSGYTFTSYYIHWVRQAPGQGLEWLAIINPTAGNTYYTQDFQDRVTVTRDTSTSTVYMELRGLNSEDTAVYYCASPYGVRNAFDVWGQGTMVTVSSGGGGSGGGGSGGGGSQSVLTQPPSVSAAPGQKVTISCSGSTSNIGNNYVSWYQQHPGKAPKLMIYDVSKRPSGVPDRFSGSKSGNSASLDISGLQSEDEADYYCAAWDDSLSEFLFGTGTKLTVLG
B9: N024C01 (scFv)
scFv: QVQLQQSGAEVKNPGSSVKVSCKPSRDTLSGDNFSSSVFSWVRQAPGQGLEWMGGIIPIFGVANYAQKFQPRVTISADMSTNTAYMELSSLRSEDTAVYYCASTWELRNAFDIWGKGTLVTVSSGGGGSGGGGSGGGGSQSVLTQPPSVSAAPGQKVTISCSGSTSNIGNNYVSWYQQHPGKAPKLMIYDVSKRPSGVPDRFSGSKSGNSASLDISGLQSEDEADYYCAAWDDSLSEFLFGTGTKLTVLG
B10: NO24E07 (scFv)
scFv: QVQLQESGGGLEQPGRSLRLSCTASGFTFDDYPMHWVRQAPGKGLEWVSGISGNSDRIAYADSVKGRFTISRDNSKNTLWLQMNSLRAEDTAIYYCARAARNWFDPWGQGTLVTVSSGGGGSGGGGSGGGGSQSVLTQPPSVSAAPGQKVTISCSGSTSNIGNNYVSWYQQHPGKAPKLMIYDVSKRPSGVPDRFSGSKSGNSASLDISGLQSEDEADYYCAAWDDSLSEFLFGTGTKLTVLG
B11: NO24C05 (scFv)
scFv: QVQLQQSGPGLVKPSQTLSLTCAISGDSVSSNTAAWSWIRQSPSRGLEWLGRTYYSRSKWYKDYAVSVKSRITINPDTSKNQFSLQLDSVTPEDTAVYYCTREGYYDYSGVVDYWGQGTTVIVSSGGGGSGGGGSGGGGSQSVLTQPPSASGSPGQSVTISCTGTSSDVGGYNYVSWYQQHPGKAPKFMIYDVSKRPSGVSNRFSGSKSGNTASLTISGVQAEDEADYYCSSYTSASTVIFGGGTKLTVLG
B12: N015E08 (scFv)
scFv: QMQLQESGAEVKKPGSSVKVSCKASGDTFRSYIISWVRQAPGQGLEWMGGIIPMFGTTNYAQQFQGKVTITADDSTSTSYMELRSLRSDDTAVYYCARGTNYMDVWGQGTTVTVSSGGGGSGGGGSGGGGSQSVLTQPPSVSAAPGQKVTISCSGSTSNIGNNYVSWYQQHPGKAPKLMIYDVSKRPSGVPDRFSGSKSGNSASLDISGLQSEDEADYYCAAWDDSLSEFLFGTGTKLTVLG
B13: NO15D08 (scFv)
scFv: QVQLLQSAPEVKKPGSSVRVSCKTSGGTFSSQLINWVRQPPGQGPEWMGGIIPIFGTANYAQKFQGRVTITADESTSTAYMELSSLRSEDTAVYYCARDLTAGRFDAFHIWGRGTLVTVSSGGGGSGGGGSGGGGSQSVLTQPPSVSAAPGQKVTISCSGSTSNIGNNYVSWYQQHPGKAPKLMIYDVSKRPSGVPDRFSGSKSGNSASLDISGLQSEDEADYYCAAWDDSLSEFLFGTGTKLTVLG
B14: NO24D01 (scFv)
scFv: QVQLQQSGGGVVQPGRSLRLSCAASGFTFDDYAMHWVRQAPGKGLEWVSGISWNSGSIGYADSVKGRFTISRDNAKNSLYLQMNSLRAEDTALYYCAKTGGGNSLDYWGRGTLVTVSSGGGGSGGGGSGGGGSQSVLTQPPSVSAAPGQKVTISCSGSTSNIGNNYVSWYQQHPGKAPKLMIYDVSKRPSGVPDRFSGSKSGNSASLDISGLQSEDEADYYCAAWDDSLSEFLFGTGTKLTVLG
B15: NO25C01 (scFv)
scFv: QVQLVQSGAEVKKPGTSVKVSCKAAGDTFRSYIISWVRQAPGQGLEWVGGIIPMFGTSNYAQKFQGRVTITADDSTSTAYMELSSLRSEDTAVYYCARTAQGGSYYNYWGQGTPVTVSSGGGGSGGGGSGGGGSQSVLTQPPSVSAAPGQKVTISCSGSTSNIGNNYVSWYQQHPGKAPKLMIYDVSKRPSGVPDRFSGSKSGNSASLDISGLQSEDEADYYCAAWDDGLSEFLFGTGTKLTVLG
B16: NO23E01 (scFv)
scFv: QVQLVQSGGGLVQPGRSLRLSCAASGFTFDDYAMHWVRQAPGKGLEWVSGISWNSASIGYADSVKGRFTISRDNAKNSLYLQMNSLRGEDTALYYCAKGARDALDIWGKGTLLTVSSGGGGSGGGGSGGGGSQSVLTQPPSVSAAPGQKVTISCSGSTSNIGNNYVSWYQQHPGKAPKLMIYDVSKRPSGVPDRFSGSKSGNSASLDISGLQSEDEADYYCAAWDDSLSEFLFGTGTKLTVLG
B17: NO24F09 (scFv)
scFv: QVQLQQSGAEVKKPGASVKVSCKASGYTFTGYYMHWVRQAPGQRLEWMGGILPFFGTTSYAQNFHGRLTITADESTRTAYMELSSLKSEDTAVYYCARDESADPKNAFDIWGRGTMVTVSSGGGGSGGGGSGGGGSQSVLTQPPPVSAAPGQKVTISCSGSTSNIGNNYVSWYQQRPGKAPKLMIYDVSKRPSGVPDRFSGSKSGNSASLDISGLQSEDEADYYCAAWDDSLSEFLFGTGTKLTVLG

Target: T1, mature form of the neurokinin B polypeptide (amino acids 81 to 90 of SEQ ID NO:2) (human, ends and bridges not checked)
T1 construct: also called NKB; neurokinin 3 (NK3)
T1 peptide: DMHDFFVGLM
Test: phage display selection of scFvs; conditions not given

Binding result, binds:
B1, B2, B3, B4, B5, B6, B7, B8, B9, B10, B11, B12, B13, B14, B15, B16, B17
